Measurements as given in patent US20240350646A1, “METHODS AND COMPOSITIONS FOR DELIVERY TO AND ACROSS THE BLOOD BRAIN BARRIER” (NUtech Ventures, priority 2021, published 2024).

T1: human claudin-1 (Homo sapiens, UniProt O95832)
T1 construct: made in house
T1 sequence (O95832 1-211): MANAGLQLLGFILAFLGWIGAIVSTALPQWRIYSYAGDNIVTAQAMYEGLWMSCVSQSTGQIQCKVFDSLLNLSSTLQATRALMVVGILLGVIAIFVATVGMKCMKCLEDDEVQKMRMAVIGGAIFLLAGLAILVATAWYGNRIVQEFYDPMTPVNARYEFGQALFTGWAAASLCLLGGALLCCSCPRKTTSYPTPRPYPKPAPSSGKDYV

T2: claudin-1 (Mus musculus, UniProt O88551)
T2 sequence (O88551 1-211): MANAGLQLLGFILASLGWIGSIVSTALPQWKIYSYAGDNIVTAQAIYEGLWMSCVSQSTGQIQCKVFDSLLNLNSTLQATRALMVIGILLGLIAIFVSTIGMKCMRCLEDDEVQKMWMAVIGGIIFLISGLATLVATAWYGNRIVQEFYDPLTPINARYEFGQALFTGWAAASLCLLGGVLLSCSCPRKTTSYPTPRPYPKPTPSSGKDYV

T3: mouse claudin-1 (Mus musculus, UniProt O88551)
T3 construct: These cells were subjected to ethanol (50 mM) treatment to induce claudin-1 expression; endogenous in cells; host or cells: bEnd.3 mouse brain microvascular endothelial cells
T3 sequence (O88551 1-211): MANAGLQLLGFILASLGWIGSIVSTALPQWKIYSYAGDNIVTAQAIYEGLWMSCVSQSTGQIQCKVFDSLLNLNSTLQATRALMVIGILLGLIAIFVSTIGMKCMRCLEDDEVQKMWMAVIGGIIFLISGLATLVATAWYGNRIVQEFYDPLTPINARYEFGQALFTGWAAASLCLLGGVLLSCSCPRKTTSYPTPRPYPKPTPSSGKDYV

T4: human claudin-9 (human, UniProt O95484 1-217, limits assumed)
T4 sequence (looked up): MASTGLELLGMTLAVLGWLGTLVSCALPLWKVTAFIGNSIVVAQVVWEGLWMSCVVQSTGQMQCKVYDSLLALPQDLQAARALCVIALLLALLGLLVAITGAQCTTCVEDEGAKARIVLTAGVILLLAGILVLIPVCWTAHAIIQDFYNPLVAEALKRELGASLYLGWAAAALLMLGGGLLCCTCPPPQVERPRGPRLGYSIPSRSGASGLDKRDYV


How the values were obtained:
human claudin-1 = biological target: T1, human claudin-1; assay: In vitro immunofluorescence of NP binding in bEnd.3 cells transfected with human claudin-1 plasmid; type: cell-based; details: cells transfected to express human claudin-1; 4 hrs
Protocol: (§1) bEnd.3 cells were cultured according to the ATCC culture conditions in DMEM. These cells were subjected to ethanol (50 mM) treatment to induce claudin-1 expression and incubated with C1C2-NP for 4 hrs. For determining attachment of the C1C2-NP to human claudin-1, human claudin-1 encoded PCMV script plasmid was overexpressed in bEnd.3 cells and then incubated with C1C2-NP for 4 hrs.

claudin-1 = biological target: T2, claudin-1; details: corpus callosum and hippocampus, in vivo
Protocol: A fluorescence microscope (LSM800, Zeiss) was used to take the fluorescence image of mice brain. Mice were transcardially perfused after 2 h of MRI with 4% paraformaldehyde (PFA) in Dulbecco's phosphate-buffered saline (DPBS, Thermo Fisher Scientific, Waltham, MA). Brain tissue was collected, trimmed, and fixed in 4% buffered PFA for 24 h. The brains were moved into 30% sucrose in DPBS for 3 d at 4° C. for cryoprotection. The brains were then embedded in 2.6% carboxymethylcellulose (CMC, C4888, Sigma-Aldrich, St. Louis, MO), frozen on dry ice, and sliced coronally at a 15 μm thickness with cryotome (Leica Biosystems, Wetzlar, Germany). The brain slices were laid on poly-L-lysine coated microscope slides (Thermo Fisher Scientific) and dried overnight at RT. […]
Images were acquired with confocal microscopy at 40× objective lens magnification. Quantitative image analysis was performed with ImageJ software on at least two randomly selected viewing fields for each region for each mouse. The fluorescence signal of claudin-1 was thresholded to only integrate the density above 20 to remove the background fluorescence. Gamma correction was performed only on the representative images after the immunofluorescence quantification with shadows value of 0, midtones value of 0.26, and highlights value of 100 for all CMYK channels with Adobe Photoshop.

mouse claudin-1 = biological target: T3, mouse claudin-1; assay: In vitro immunofluorescence of NP binding in bEnd.3 cells (control and ethanol induced); type: cell-based; details: 4 hrs
Protocol: as §1

[1] = MST check of non-specific binding to detergent micelles; details: NP fixed at 1 μM, β-DDM varied; data not shown
Protocol: (§2) Human claudin-1 was expressed and purified as reported previously (Vecchio & Stroud, 2019, PNAS USA, 116:17817-24). MST measurements were performed using a Monolith instrument (NanoTemper Technologies). For experiments with human claudin-1, the assay buffer contained 10 mM Tris HCl, pH 8.0, 100 mM NaCl, 4% glycerol, and 0.04% n-Dodecyl-β-D-Maltopyranoside (β-DDM). NPs and peptides were labeled with AF647 prior to MST analysis as described above. For the binding experiments, the concentration of human claudin-1 was varied from 2.2-73,500 nM and the AF647-labeled C1C2-NP was fixed at 70 nM, while the AF647 labeled NPs and AF647 labeled C1C2 peptide were fixed at 1 and 0.3 μM, respectively. Binding of the AF647 labeled C1C2-NP to human claudin-3, -4, and -9 were tested using 0.4-14000 nM, 0.8-28000 nM, and 0.6-20000 nM, respectively; with the AF647 labeled C1C2-NP fixed at 70 nM. This assay buffer was similar, except β-DDM was replaced with 0.1% n-Undecyl-β-D-Maltopyranoside (beta-UDM). […] All experiments were conducted at 23° C. using the nano-red channel of the Monolith instrument and the data were analyzed by using either Monolith analysis software or Graph Pad Prism, version 9 (Graph Pad Software, San Diego, California).

human claudin-9 = biological target: T4, human claudin-9; assay: MST, sigmoidal dose-response fit (GraphPad Prism) of the FIG. 10A data; fit did not converge [panel B]
Protocol: FIG. 10C is a graph showing the binding of human claudins 4 and 9 to control NPs monitored using microscale thermophoresis. […] Data fitting for human claudins 3, 4 and 9 were performed using Graph Pad Prism.
as §2, with “nM.” for “nM. This assay buffer was similar, except β-DDM was replaced with 0.1% n-Undecyl-β-D-Maltopyranoside (beta-UDM).”

Binding to bEnd.3 cells (human claudin-1) | Localization relative to claudin-1 immunofluorescence staining (claudin-1) | Binding to bEnd.3 cells (mouse claudin-1; claudin-1 induced by ethanol (50 mM)) | Binding to bEnd.3 cells (mouse claudin-1; control cells, low claudin-1 expression) | Non-specific binding to β-DDM micelle [1] | LogEC50 (human claudin-9) | Molecule
High NP binding | co-localize | much higher binding | no binding | No significant binding |  | C1C2-NP: PEG diacid coated ultrasmall Gd NP conjugated with C1C2 peptide SSVSQSTGQIQSKVDSLLNLNSTQATR (SEQ ID NO: 6); claudin-1 targeted (Ac-SSVSQSTGQIQSKVDSLLNLNSTQATR-NH2; also: conjugated to PEG diacid coated ultrasmall Gd nanoparticle)
 |  |  |  |  | -0.661 | Ac-SSVSQSTGQIQSKVDSLLNLNSTQATR-NH2 (not fully specified; also: conjugated by EDC-NHS chemistry to PEG diacid on Gd oxide nanoparticle surface (19 peptides per 3.5 nm particle), The protein part is the C1C2 peptide; the core is not a protein; also called C1C2-NPs; C1C2 NPs) [C1C2-NP (C1C2 peptide conjugated to PEG diacid coated ultrasmall Gd nanoparticles)]
